We go through 1 substance from paper PMC11957393.

The target in this assay is chicken MyD88, full length, Flag-tagged (Flag-MyD88), expressed in HEK293T cells (chicken) (UniProt A5HNF6). The experiment in a line: co-IP; HEK293T cells co-transfected with the indicated plasmids (2 ug/1x10^6 cells), harvested at 30 h; NP-40 lysis buffer; immunoprecipitated by the Flag tag, blotted for HA and Flag tags.
Sequence of UniProt A5HNF6 (A5HNF6 whole entry): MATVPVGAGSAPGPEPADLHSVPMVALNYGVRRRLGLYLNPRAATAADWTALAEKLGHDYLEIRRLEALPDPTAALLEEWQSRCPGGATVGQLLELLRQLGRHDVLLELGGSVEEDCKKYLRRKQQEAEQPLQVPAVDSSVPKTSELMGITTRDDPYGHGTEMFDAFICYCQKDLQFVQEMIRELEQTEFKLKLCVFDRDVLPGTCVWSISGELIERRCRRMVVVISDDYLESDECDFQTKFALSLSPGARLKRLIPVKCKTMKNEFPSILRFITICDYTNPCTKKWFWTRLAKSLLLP

In turn, “VP2-HT: IBDV VP2 with the double mutation Q253H/A284T (VP2 of the rescued HT strain), expressed in HEK293T cells (natural protein)” came in with a fold decrease of interaction compared to VP2 of 2.9 fold.
